Biological target: UDP-glucose pyrophosphorylase from Thermocrispum agreste DSM 44070 (TaGalU) (Thermocrispum agreste DSM 44070)
Test: SEC; Superdex 200 10/300 GL 24 mL column, non-denaturing, 50 mM Hepes pH 7.0, 1 mM MgCl2; calibrated with protein standards

UDP-glucose pyrophosphorylase from Thermocrispum agreste DSM 44070 (TaGalU) (enzyme)
stoichiometry N: 6

— article PMC7343719, “Immobilization of the Highly Active UDP-Glucose Pyrophosphorylase From Thermocrispum agreste Provides a Highly Efficient Biocatalyst for the Production of UDP-Glucose” (Frontiers in Bioengineering and Biotechnology, 2020)
